The record followed here is paper PMC3618186, “Dynein and Dynactin Leverage Their Bivalent Character to Form a High-Affinity Interaction” (PLoS ONE, 2013).

As a reminder, the Kd is the constant that tells how readily two partners part at equilibrium. A word on the stoichiometry N: it is a count of units in the complex or per binding partner.

Sequences and labels used below:
B1: dynactin p150^Glued coiled-coil 1B (CC1B), residues 381–530 (domain or fragment, R. norvegicus, UniProt P28023 381-530, looked up)
chain: SSEKQEHVKLQKLMEKKNQELEVVRQQRERLQEELSQAESTIDELKEQVDAALGAEEMVEMLTDRNLNLEEKVRELRETVGDLEAMNEMNDELQENARETELELREQLDMAGARVREAQKRVEAAQETVADYQQTIKKYRQLTAHLQDVN
notes: also called p150^Glued CC1B; source: E. coli BL21 Star (DE3), purified (Ni-NTA, Ulp1 cleavage, HiTrap Q XL, Superdex 75); not shown: His6, N-terminal, cleaved; SMT3 (S. cerevisiae SUMO), N-terminal, cleaved

Where only a bound is given, the exact number is not on record here.

Data set [1] concerns the molecule itself. Nature of the data set: AUC; sedimentation equilibrium of the p150Glued fragments alone, 4°C, 1x PBS, 1 mM TCEP; monomer-dimer model (dimer to monomers).
Data set [2] deals with the molecule itself. Nature of the data set: not stated; unpublished observation.
Data set [3] addresses B1. Nature of the data set: native gel or EMSA; native PAGE; purified proteins incubated at 25°C for five minutes in equimolar or two fold molar excess; 12% gels with a stacking gel at pH 7.4 or 8–25% gradient gels. As to conditions: both partners purified. (In EMSA bound probe runs differently from free probe, usually more slowly.)

Consider B1, for which, in data set [1], the Kd is less than 60 nM and the “stoichiometry N” value came out at 2.

B2: dynactin p150^Glued coiled-coil 1A (CC1A), residues 204–348 (domain or fragment, R. norvegicus, UniProt P28023 204-348, looked up)
chain: PGAAPPLPSPSKEEEGLRDQVRDLEEKLETLRLKRSEDKAKLKELEKHKIQLEQVQEWKSKMQEQQADLQRRLKEAKEAKEALEAKERYMEEMADTADAIEMATLDKEMAEERAESLQQEVEALKERVDELTTDLEILKAEIEEK
notes: R. norvegicus dynactin p150Glued, residues 204-348; Dimer at 4°C by sedimentation equilibrium; source: E. coli BL21 Star (DE3), purified (Ni-NTA, Ulp1 cleavage, HiTrap Q XL, Superdex 75); not shown: His6, N-terminal, cleaved; SMT3 (S. cerevisiae SUMO), N-terminal, cleaved
Take B2: in data set [1], the Kd was less than 40 nM and the “stoichiometry N” value amounted to 2.

B3: p150^Glued CC2 (residues 928–1049) (domain or fragment, rat (numbering stated as rat, p-0002), UniProt P28023 928-1049, looked up)
chain: AALRAEITDAEGLGLKLEDRETVIKELKKSLKIKGEELSEANVRLSLLEKKLDSAAKDADERIEKVQTRLEETQTLLRKKEKEFEETMDALQADIDQLEAEKTELKQRLNSQSKRTIEGLRG
notes: Unpublished observation of the authors
Regarding B3, the “stoichiometry N” value in data set [2] came out at 2.

B4: S. cerevisiae dynein intermediate chain Pac11, residues 1–86, wild type (domain or fragment, UniProt P40960 1-86, looked up)
chain: MERLKQLEEKRRQLKELRERRKQASLFPGSETMGHHPTEVHAKATMVSVSVQTDMEEGSKIQEPQSAYLRRKEVITYDKGIQTDQI
notes: S. cerevisiae dynein intermediate chain Pac11, residues 1-86; Cloned in pGEX 6P-3; also called wt-Pac11^1–86; Pac11 1–86; source: E. coli BL21 Star (DE3), purified (Glutathione Sepharose 4B, precision protease, Superdex 75)
In the case of B4, the binding result in data set [3] is listed as “binds”.
